The values below come from patent US20180362643A1 (Amgen, published 2018).

Ends that are not written are not given here.

Experiment [1] addresses T1, 31-38 (ends and bridges not checked).
T1 construct: also called PACAP38 peptide fragment 31-38; peptide No. 5
T1 peptide: YKQRVKNK
Nature of the experiment: SPR (Biacore 3000), solution competition with the peptide for antibody binding to immobilised full-length PACAP38; % inhibition. On the procedure: (§1) The binding epitopes of anti-PACAP antibodies were evaluated by using the Biacore 3000 biosensor-based instrument (GE Healthcare USA). The Biacore 3000 instrument utilizes surface plasmon resonance (SPR) technology to measure mass increase on the sensor-chip surface. The binding interactions are measured in real-time and recorded as Response Units (RU). Each binding profile (cycle) is stored in a “sensorgram” in real-time. Generally, Biacore technology entails immobilizing a ligand of interest on to a flow-cell of the sensor-chip via a coupling chemistry. The analyte (e.g. putative binding partner to the ligand of interest) is injected across the immobilized ligand allowing it to bind to the ligand-immobilized surface. The magnitude of the response is directly proportional to the mass increase on the immobilized surface due to the binding of the analyte.
(§2) In this experiment, various peptide fragments of PACAP38 were incubated with each of the six antibodies (mAb1, mAb2, mAb3, mAb4, mAb5, and mAb6) described in Example 2 and evaluated for their ability to inhibit binding of the antibodies to full-length PACAP38 immobilized on the sensor-chip. The binding epitopes for each of the antibodies were deduced from the set of peptides that were able to inhibit the binding of each antibody to full-length PACAP38.
(§3) Each of the six anti-PACAP antibodies was incubated at a 1:200 molar ratio (Ab: peptide fragment) with each of the peptide fragments in Table 9 at an ambient temperature for 2 hours prior to analysis. […] A second control containing 6.5 nM antibody was prepared in sample diluent to be used as the untreated control sample for each antibody. Full-length PACAP38, buffer, and each peptide fragment were also tested to evaluate non-specific binding to the immobilized PACAP38 surface.
(In general: SPR reads the build-up and loss of mass on a sensor chip optically.)

In experiment [2] the target is T2, PACAP38 peptide fragment 34-38 (human, ends and bridges not checked).
T2 construct: also called peptide No. 17; RVKNK
T2 peptide: RVKNK
The experiment is described as above. On the procedure:
as §1, §2, §3

The target in experiment [3] is T3, human PACAP27 (human, not fully specified).
T3 peptide: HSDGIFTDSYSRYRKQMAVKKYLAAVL
The experiment in a line: cell-based or functional assay.

For experiment [4], the target named is T4, PACAP38 peptide fragment 6-35 (human).
T4 construct: also called peptide No. 4
T4 peptide: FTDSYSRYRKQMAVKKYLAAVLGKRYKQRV
Nature of the experiment: SPR (Biacore 3000) solution competition: antibody pre-incubated 1:200 with the fragment, then injected over immobilised PACAP38. On the procedure:
as §2, §3

Experiment [5] concerns the target T5, PACAP38 peptide fragment 4-27 (human).
T5 construct: also called peptide No. 9
T5 peptide: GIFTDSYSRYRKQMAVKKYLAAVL
The experiment is described as above. The protocol: as §2, §3

Experiment [6] has as its target T6, PACAP38 peptide fragment 14-38 (human, not fully specified).
T6 construct: also called peptide No. 7
T6 peptide: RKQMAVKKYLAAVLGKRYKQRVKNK
The description is as above. On the procedure:
as §2, §3

Experiment [7] addresses T7, PACAP38 peptide fragment 11-27 (human).
T7 construct: also called peptide No. 8
T7 peptide: SRYRKQMAVKKYLAAVL
Described as above. The protocol: as §2, §3

For experiment [8], the target named is T8, PACAP38 peptide fragment 27-38 (human, ends and bridges not checked).
T8 construct: also called peptide No. 6
T8 peptide: LGKRYKQRVKNK
Nature of the experiment: SPR (Biacore 3000) solution competition against immobilised PACAP38.

The target in experiment [9] is T9, PACAP38 peptide fragment 26-33 (human).
T9 construct: also called peptide No. 2
T9 peptide: VLGKRYKQ
The experiment is described as above.

Experiment [10] concerns the target T10, amino terminal PACAP38 peptide (amino acids 1-13) (human).
T10 construct: also called N-terminal Peptide; N-terminal PACAP peptide
T10 peptide: HSDGIFTDSYSRY
Nature of the experiment: ELISA screen of B-cell culture supernatant; N-terminal peptide at 500 ng/mL. On the technique in general: In an ELISA, binding on a coated surface is turned into a signal by an enzyme label.

Experiment [11] has as its target T5, PACAP38 peptide fragment 4-27. Nature of the experiment: SPR (Biacore 3000), solution competition with the peptide for antibody binding to immobilised full-length PACAP38; % inhibition. On the procedure: as §1, §2, §3
Experiment [12] has as its target T1, 31-38. The experiment in a line: SPR (Biacore 3000), solution competition: antibody pre-incubated 2 h with the peptide at 1:200 molar ratio (Ab:peptide), then injected over immobilised full-length PACAP38; readout % inhibition of antibody binding (filing counts >50 % as reactive). On the procedure:
as §1, §2, §3

In experiment [13] the target is T8, PACAP38 peptide fragment 27-38. The description is as above. On the procedure: as §1, §2, §3
The target of experiment [14] is T11, 30-37.
T11 construct: also called PACAP38 peptide fragment 30-37; peptide No. 19
T11 peptide: RYKQRVKN
The description is as above. On the procedure: as §1, §2, §3

Experiment [15] deals with T2, PACAP38 peptide fragment 34-38. The experiment in a line: SPR (Biacore 3000) solution competition: antibody pre-incubated 1:200 with the fragment, then injected over immobilised PACAP38. The protocol: as §2, §3
For experiment [16], the target named is T4, PACAP38 peptide fragment 6-35. The experiment in a line: SPR (Biacore 3000), solution competition: antibody pre-incubated 2 h with the peptide at 1:200 molar ratio (Ab:peptide), then injected over immobilised full-length PACAP38; readout % inhibition of antibody binding (filing counts >50 % as reactive). On the procedure: as §1, §2, §3
Experiment [17] deals with T5, PACAP38 peptide fragment 4-27. The experiment is described as above. The protocol: as §1, §2, §3
The target of experiment [18] is T7, PACAP38 peptide fragment 11-27. The experiment is described as above. On the procedure: as §1, §2, §3

B1: mAb5 (antibody, V domains shown)
VH: QSVEESGGRLVTPGTPLTLTCTVSGFSLSTYNMCWVRQAPGKGLEWVGFINSDDSAYYASWAKGRFTFSKTSTTVDLKIASPTTEDTATYFCARYDWDYYYSRLDLWGPGTLVTVSS
VL: DIVLTQTPASVSAAVGGTVSISCQSSESVYNNNYLSWFQQKPGQPPKLLIYGASTLASGVPSRFEGSGSGTQFTLTISDVQCDDAATYYCLGDYIIIENIFGGGTEVVVKG
notes: Rabbit monoclonal antibody (SLAM), recombinant; also called monoclonal anti-PACAP antibody 5; 5 (c71)
Consider B1, for which the binding result is on record as “no binding (tested: 1:200 molar ratio (Ab:peptide))” in [1]; “no binding (tested: 1:200 molar ratio (Ab:peptide))” in experiment [2]; “binds” in experiment [4]; “binds” in [5]; “binds” in [6]; “binds” in experiment [7]. Moreover, the binding result in [8] and in [9] was “no binding (tested: 1:200 molar ratio (Ab: peptide fragment))” throughout. In addition, in experiment [3], the “IC50: inhibition of PACAP27 (10 pM)-induced activation of human PAC1 receptor, cAMP assay in SH-SY5Y (CRL-2266) cells, POC versus antibody concentration” value worked out at 41 nM.

B2: mAb2 (antibody, V domains shown)
VH: QSLEESGGGLVQPEGSLTLTCTASGFSFNSSSYMCWVRQAPGKGLEWIGCIFTGSSGNTYYATWAQGRFTISKTSTTVTLEMTSLTAADTATYFCARDRAYFLVGYFYATYYFDLWGPGTLVTVSS
VL: DVVMTQTPSPVSAQVGGTVTINCQASESIDSDLSWYQQKPGQPPKLLIYRTFTLESGVPSRFKGSGSGTDYTLTISDLECADAAIYYCQCTDGSSISGSYGWDAFGGGTEVVVKG
notes: Rabbit monoclonal antibody (SLAM), recombinant; also called monoclonal anti-PACAP antibody 2; 2 (c81)
In the case of B2, the “Optical Density” value in experiment [10] stood at 0.06 OD. Also, the binding result in [11] is recorded as “no binding (tested: 1:200 molar ratio (Ab:peptide))”; in experiment [12], “binds”; in experiment [13], “binds”; in experiment [14], “binds”; in experiment [15], “binds”.

B3: mAb6 (antibody, V domains shown)
VH: QLEESGGGLVQPGASLTLTCTTSGFSLSDNYLCWVRQAPGRGLEWVACIGIVLRSTGATYYASWAEGRFTISKTSPTTVTLEMTSLTAADTATYFCALDLGYGGPLWGPGTLVTVSS
VL: AQVLTQTPASVSAAVGGTVTINCQASQSVYNNKNLAWYQQKPGQPPKLLIYFSSTLASGVPSRFRGSGSGTQFTLTISGVQCGDAATYYCLGEFGSIWAFGGGTEVVVKG
notes: Rabbit monoclonal antibody (SLAM), recombinant; also called monoclonal anti-PACAP antibody 6; 6 (c55)
As for B3, the binding result in experiment [1] is reported as “no binding (tested: 1:200 molar ratio (Ab:peptide))”; in [2] it was “no binding (tested: 1:200 molar ratio (Ab:peptide))”; in [16] it was “binds”; in [17] it was “binds”; in [18], “binds”.
